# Measurements taken from paper PMC5880107, “The Sequence-specific Peptide-binding Activity of the Protein Sulfide Isomerase AGR2 Directs Its Stable Binding to the Oncogenic Receptor EpCAM*^([image sbox.jpg])” (Molecular & Cellular Proteomics : MCP, 2018).
# B1: His-AGR2 WT (mature AGR2, amino acids 21-175, N-terminal 6xHis tag; plasmid pmAGR2) [human] / His-EpEX-CO, extracellular domain of EpCAM (amino acids 24-265), N-terminal 6xHis tag [human] (parent complex)
# chain 1: RDTTVKPGAKKDTKDSRPKLPQTLSRGWGDQLIWTQTYEEALYKSKTSSKPLMIIHHLDECPHSQALKKVFAENKEIQKLAEQFVLLNLVYETTDKHLSPDGQYVPRIMFVDPSLTVRADITGRYSNRLYAYEPADTALLLDNMKKALKLLKTEL
# chain 2: QEECVCENYKLAVNCFVNNNRQCQCTSVGAQNTVICSKLAAKCLVMKAEMNGSKLGRRAKPEGALQNNDGLYDPDCDESGLFKAKQCNGTSMCWCVNTAGVRRTDKDTEITCSERVRTYWIIIELKHKAREKPYDSKSLRTALQKEITTRYQLDPKFITSILYENNVITIDLVQNSSQKTQNDVDIADVAYYFEKDVKGESLFHSKKMDLTVNGEQLDLDPGQTLIYYVDEKAPEFSMQGLK
# B2: wt-peptide PTTIYY (non-biotinylated hexapeptide) / His-AGR2 WT (mature AGR2, amino acids 21-175, N-terminal 6xHis tag; plasmid pmAGR2) [human] (parent complex)
# chain 1: PTTIYY
# chain 2: B1 chain 1
# Variants of: B1
# Assay: ELISA (His-EpCAM solid phase; His-AGR2 mobile phase); point at 0.5 μg AGR2 (highest dose of the titration); no DTT; read off a plot
row,Variant,response [RLU]
1,chain 1 RDTTVKPGAKKDTKDSRPKLPQTLSRGWGDQLIWTQTYEEALYKSKTSSKPLMIIHHLDECPHSQALKKVFAENKEIQKLAEQFVLLNLVYETTDKHLSPDGQYVPRIMFVDPALTVRADITGRYSNRLYAYEPADTALLLDNMKKALKLLKTEL [chain 1 S114A],~160
2,chain 1 RDTTVKPGAKKDTKDSRPKLPQTLSRGWGDQLIWTQTYEEALYKSKTSSKPLMIIHHLDECPHSQALKKVFAENKEIQKLAEQFVLLNLVYETTDKHLSPDGQYVPRIMFVDASLTVRADITGRYSNRLYAYEPADTALLLDNMKKALKLLKTEL [chain 1 P113A],~150
3,chain 1 RDTTVKPGAKKDTKDSRPKLPQTLSRGWGDQLIWTQTYEEALYKSKTSSKPLMIIHHLDECPHSQALKKVFAENKEIQKLAEQFVLLNLVYETTDKHLSPDGQYVPRIMFVAPSLTVRADITGRYSNRLYAYEPADTALLLDNMKKALKLLKTEL [chain 1 D112A],~140

# Variants of: B1
# Assay: ELISA (His-EpCAM solid phase; His-AGR2 mobile phase); point at 0.5 μg AGR2 (highest dose of the titration); 1 mm DTT at the AGR2-binding stage; read off a plot
row,Variant,response [RLU]
1,chain 1 RDTTVKPGAKKDTKDSRPKLPQTLSRGWGDQLIWTQTYEEALYKSKTSSKPLMIIHHLDECPHSQALKKVFAENKEIQKLAEQFVLLNLVYETTDKHLSPDGQYVPRIMFVDPALTVRADITGRYSNRLYAYEPADTALLLDNMKKALKLLKTEL [chain 1 S114A],~160
2,chain 1 RDTTVKPGAKKDTKDSRPKLPQTLSRGWGDQLIWTQTYEEALYKSKTSSKPLMIIHHLDECPHSQALKKVFAENKEIQKLAEQFVLLNLVYETTDKHLSPDGQYVPRIMFVDASLTVRADITGRYSNRLYAYEPADTALLLDNMKKALKLLKTEL [chain 1 P113A],~35
3,chain 1 RDTTVKPGAKKDTKDSRPKLPQTLSRGWGDQLIWTQTYEEALYKSKTSSKPLMIIHHLDECPHSQALKKVFAENKEIQKLAEQFVLLNLVYETTDKHLSPDGQYVPRIMFVAPSLTVRADITGRYSNRLYAYEPADTALLLDNMKKALKLLKTEL [chain 1 D112A],~110

# Variants of: B2
# Assay: competition ELISA (AGR2 binding to immobilised biotinylated peptide A4 with free competitor peptide); 1 μg AGR2; 100 ng competitor peptide; RLU is AGR2 bound to peptide A4, so lower RLU = stronger competitor binding; DMSO (no competitor) est. 79; read off a plot
row,Variant,response [RLU]
1,chain 1 PTTAYY [chain 1 I4A],~83
2,chain 1 PTTLYY [chain 1 I4L],~44
3,chain 1 PTTMYY [chain 1 I4M],~80
4,chain 1 PTTVYY [chain 1 I4V],~55
5,chain 1 PSTIYY [chain 1 T2S],~83
6,chain 1 PCTIYY [chain 1 T2C],~80
7,chain 1 PATIYY [chain 1 T2A],~84
8,chain 1 PTTIYF [chain 1 Y6F],~25
9,chain 1 PTTIYA [chain 1 Y6A],~60
10,chain 1 GTTIYY [chain 1 P1G],~7.5
11,chain 1 LTTIYY [chain 1 P1L],~15
12,chain 1 ITTIYY [chain 1 P1I],~7.5
13,chain 1 MTTIYY [chain 1 P1M],~17
14,chain 1 WTTIYY [chain 1 P1W],~9
15,chain 1 FTTIYY [chain 1 P1F],~6
16,chain 1 VTTIYY [chain 1 P1V],~11
17,chain 1 ATTIYY [chain 1 P1A],~6
18,chain 1 PTTIFY [chain 1 Y5F],~40
19,chain 1 PTTIAY [chain 1 Y5A],~84
20,chain 1 PTTIWY [chain 1 Y5W],~20
21,chain 1 PTSIYY [chain 1 T3S],~7
22,chain 1 PTGIYY [chain 1 T3G],~12
23,chain 1 PTMIYY [chain 1 T3M],~8
24,chain 1 PTLIYY [chain 1 T3L],~66
25,chain 1 PTIIYY [chain 1 T3I],~75
26,chain 1 PTAIYY [chain 1 T3A],~6
27,chain 1 PTVIYY [chain 1 T3V],~35
